Substrate in data set [1]: N[C@@H](CCC(=O)N[C@@H](CS)C(=O)NCC(=O)O)C(=O)O
The data set is described as follows: not read.

Substrate in data set [2]: N[C@@H](CCC(=O)N[C@@H](CSSC[C@H](NC(=O)CC[C@H](N)C(=O)O)C(=O)NCC(=O)O)C(=O)NCC(=O)O)C(=O)O
The data set is described as follows: Activity of MRP1.

B1: Multidrug resistance-associated protein 1 (Homo sapiens) (protein)
chain: MALRGFCSADGSDPLWDWNVTWNTSNPDFTKCFQNTVLVWVPCFYLWACFPFYFLYLSRHDRGYIQMTPLNKTKTALGFLLWIVCWADLFYSFWERSRGIFLAPVFLVSPTLLGITMLLATFLIQLERRKGVQSSGIMLTFWLVALVCALAILRSKIMTALKEDAQVDLFRDITFYVYFSLLLIQLVLSCFSDRSPLFSETIHDPNPCPESSASFLSRITFWWITGLIVRGYRQPLEGSDLWSLNKEDTSEQVVPVLVKNWKKECAKTRKQPVKVVYSSKDPAQPKESSKVDANEEVEALIVKSPQKEWNPSLFKVLYKTFGPYFLMSFFFKAIHDLMMFSGPQILKLLIKFVNDTKAPDWQGYFYTVLLFVTACLQTLVLHQYFHICFVSGMRIKTAVIGAVYRKALVITNSARKSSTVGEIVNLMSVDAQRFMDLATYINMIWSAPLQVILALYLLWLNLGPSVLAGVAVMVLMVPVNAVMAMKTKTYQVAHMKSKDNRIKLMNEILNGIKVLKLYAWELAFKDKVLAIRQEELKVLKKSAYLSAVGTFTWVCTPFLVALCTFAVYVTIDENNILDAQTAFVSLALFNILRFPLNILPMVISSIVQASVSLKRLRIFLSHEELEPDSIERRPVKDGGGTNSITVRNATFTWARSDPPTLNGITFSIPEGALVAVVGQVGCGKSSLLSALLAEMDKVEGHVAIKGSVAYVPQQAWIQNDSLRENILFGCQLEEPYYRSVIQACALLPDLEILPSGDRTEIGEKGVNLSGGQKQRVSLARAVYSNADIYLFDDPLSAVDAHVGKHIFENVIGPKGMLKNKTRILVTHSMSYLPQVDVIIVMSGGKISEMGSYQELLARDGAFAEFLRTYASTEQEQDAEENGVTGVSGPGKEAKQMENGMLVTDSAGKQLQRQLSSSSSYSGDISRHHNSTAELQKAEAKKEETWKLMEADKAQTGQVKLSVYWDYMKAIGLFISFLSIFLFMCNHVSALASNYWLSLWTDDPIVNGTQEHTKVRLSVYGALGISQGIAVFGYSMAVSIGGILASRCLHVDLLHSILRSPMSFFERTPSGNLVNRFSKELDTVDSMIPEVIKMFMGSLFNVIGACIVILLATPIAAIIIPPLGLIYFFVQRFYVASSRQLKRLESVSRSPVYSHFNETLLGVSVIRAFEEQERFIHQSDLKVDENQKAYYPSIVANRWLAVRLECVGNCIVLFAALFAVISRHSLSAGLVGLSVSYSLQVTTYLNWLVRMSSEMETNIVAVERLKEYSETEKEAPWQIQETAPPSSWPQVGRVEFRNYCLRYREDLDFVLRHINVTINGGEKVGIVGRTGAGKSSLTLGLFRINESAEGEIIIDGINIAKIGLHDLRFKITIIPQDPVLFSGSLRMNLDPFSQYSDEEVWTSLELAHLKDFVSALPDKLDHECAEGGENLSVGQRQLVCLARALLRKTKILVLDEATAAVDLETDDLIQSTIRTQFEDCTVLTIAHRLNTIMDYTRVIVLDKGEIQEYGAPSDLLQQRGLFYSMAKDAGLV
As to B1, the Michaelis-Menten constant (Km) in data set [1] worked out at 5000 µM; in data set [2] it was 93 µM.

A word on the Km: it is the substrate concentration at which the rate is half of its maximum.

Values taken from ChEMBL document CHEMBL1140936, “Topological polar surface area defines substrate transport by multidrug resistance associated protein 1 (MRP1/ABCC1)” (J Med Chem, 2009).
